Data reported in PMC8105673.

Target: scavenger receptor CD36 (human (endogenous in THP-1)) (UniProt P16671)
Assay: flow cytometry on cells; THP-1-derived M1 macrophages pre-incubated with 50 μM HSAUT, HSA_(HOCl) or buffer for 15 min at 0 °C (surface binding, no internalization), then stained with a PE-conjugated anti-CD36 blocking antibody; binding of HSA read indirectly as loss of antibody staining

Chain of UniProt P16671 (P16671 whole entry): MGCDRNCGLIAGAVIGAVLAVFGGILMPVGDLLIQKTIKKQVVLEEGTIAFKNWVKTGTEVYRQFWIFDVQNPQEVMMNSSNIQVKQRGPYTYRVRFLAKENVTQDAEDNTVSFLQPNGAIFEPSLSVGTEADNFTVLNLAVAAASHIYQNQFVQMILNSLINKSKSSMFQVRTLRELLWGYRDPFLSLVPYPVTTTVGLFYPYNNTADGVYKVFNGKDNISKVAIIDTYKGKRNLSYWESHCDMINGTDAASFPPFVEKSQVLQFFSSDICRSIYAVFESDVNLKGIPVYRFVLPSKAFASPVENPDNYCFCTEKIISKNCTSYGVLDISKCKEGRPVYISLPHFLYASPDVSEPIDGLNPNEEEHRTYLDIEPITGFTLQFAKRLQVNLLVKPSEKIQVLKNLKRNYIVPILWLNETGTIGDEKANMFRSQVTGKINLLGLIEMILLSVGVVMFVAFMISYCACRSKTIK

reduction of the binding of anti-CD36 antibody to the cells: 30%
Substance: HOCl-modified human serum albumin (from UniProt P02768 25-609) (natural protein)
